Key:
LNCaP-AI cells = assay: MTT growth assay in LNCaP-AI cells; assay type: cell-based, human; conditions: 10% stripped medium, about 4 days, FIG. 11
Experimental: The role of sPLA2-IIA in the growth of prostate cancer cells was studied by MTT assay. Specifically, LNCaP-AI cells were cultured in 10% stripped medium in the presence of EGF (ng/mL) or sPLA2-IIA (ng/mL) for about 4 days, followed by performance of an MTT assay. The role of sPLA2-IIA on prostate cancer cell growth was also studied by blocking the activity of sPLA2-IIA in LNCaP-AI cells. The activity of sPLA2-IIA was blocked in LNCaP-AI cells by administering the peptide inhibitor cFLYSYR (μM) or c(NapA)R (μM) for about 4 days, followed by performance of an MTT assay.

HER3 = target: T1, HER3 (Homo sapiens, UniProt P21860); assay: Western blot of P-HER3 in lung cancer cells treated with sPLA2-IIA; assay type: cell-based; conditions: A549 and H1975 cells (FIG. 22B: H1975), 0-0.5 μg/mL, 2 H, 10% FBS
T1 construct: endogenous in cells; host or cells: H1975 lung cancer cells
Experimental: (§1) A549 and H1975 lung cancer cells were starved in 1% stripped medium for 24 H. The cells were then treated with recombinant human sPLA2-IIA (0.5 μg/mL) with various concentrations (0, 0.125, 0.25, or 0.5 μg/mL) of sPLA2-IIA for 2 H in medium containing 10% fetal bovine serum (hereinafter “FBS”). Cell extracts were prepared and subjected to western blot analysis for HER2, P-HER2, HER3, and P-HER3. Western blot analysis was conducted as previously described.

HER2 [1] = target: T2, HER2 (Homo sapiens, UniProt P04626); assay: Western blot of P-HER2 in lung cancer cells treated with sPLA2-IIA; assay type: cell-based; parameters: endogenous in cells; host or cells: A549 lung cancer cells; conditions: A549 and H1975 cells (FIG. 22A: A549), 0-0.5 μg/mL, 2 H, 10% FBS
Experimental: as §1

HER2 [2] = target: T2, HER2; assay: Western blot of P-HER2 in LNCaP-AI prostate cancer cells treated with sPLA2-IIA; assay type: cell-based; parameters: endogenous in cells; conditions: 0.5 μg/mL for 0-180 min or 0-0.5 μg/mL for 2 H, FIG. 23
Experimental: Additionally, LNCaP-AI prostate cancer cells were starved in 1% stripped medium for 24 H. The cells were then treated with recombinant human sPLA2-IIA (0.5 μg/mL) for 30 to 180 minutes (0, 30, 60, 120, or 180 min) or with various concentrations of sPLA2-IIA (0, 0.125, 0.25, or 0.5 μg/mL) for 2 H in medium containing 10% FBS. Cell extracts were prepared and subjected to western blot analysis for P-HER2 and HER2. Western blot analysis was conducted as previously described.

T1 sequence (P21860 20-1342): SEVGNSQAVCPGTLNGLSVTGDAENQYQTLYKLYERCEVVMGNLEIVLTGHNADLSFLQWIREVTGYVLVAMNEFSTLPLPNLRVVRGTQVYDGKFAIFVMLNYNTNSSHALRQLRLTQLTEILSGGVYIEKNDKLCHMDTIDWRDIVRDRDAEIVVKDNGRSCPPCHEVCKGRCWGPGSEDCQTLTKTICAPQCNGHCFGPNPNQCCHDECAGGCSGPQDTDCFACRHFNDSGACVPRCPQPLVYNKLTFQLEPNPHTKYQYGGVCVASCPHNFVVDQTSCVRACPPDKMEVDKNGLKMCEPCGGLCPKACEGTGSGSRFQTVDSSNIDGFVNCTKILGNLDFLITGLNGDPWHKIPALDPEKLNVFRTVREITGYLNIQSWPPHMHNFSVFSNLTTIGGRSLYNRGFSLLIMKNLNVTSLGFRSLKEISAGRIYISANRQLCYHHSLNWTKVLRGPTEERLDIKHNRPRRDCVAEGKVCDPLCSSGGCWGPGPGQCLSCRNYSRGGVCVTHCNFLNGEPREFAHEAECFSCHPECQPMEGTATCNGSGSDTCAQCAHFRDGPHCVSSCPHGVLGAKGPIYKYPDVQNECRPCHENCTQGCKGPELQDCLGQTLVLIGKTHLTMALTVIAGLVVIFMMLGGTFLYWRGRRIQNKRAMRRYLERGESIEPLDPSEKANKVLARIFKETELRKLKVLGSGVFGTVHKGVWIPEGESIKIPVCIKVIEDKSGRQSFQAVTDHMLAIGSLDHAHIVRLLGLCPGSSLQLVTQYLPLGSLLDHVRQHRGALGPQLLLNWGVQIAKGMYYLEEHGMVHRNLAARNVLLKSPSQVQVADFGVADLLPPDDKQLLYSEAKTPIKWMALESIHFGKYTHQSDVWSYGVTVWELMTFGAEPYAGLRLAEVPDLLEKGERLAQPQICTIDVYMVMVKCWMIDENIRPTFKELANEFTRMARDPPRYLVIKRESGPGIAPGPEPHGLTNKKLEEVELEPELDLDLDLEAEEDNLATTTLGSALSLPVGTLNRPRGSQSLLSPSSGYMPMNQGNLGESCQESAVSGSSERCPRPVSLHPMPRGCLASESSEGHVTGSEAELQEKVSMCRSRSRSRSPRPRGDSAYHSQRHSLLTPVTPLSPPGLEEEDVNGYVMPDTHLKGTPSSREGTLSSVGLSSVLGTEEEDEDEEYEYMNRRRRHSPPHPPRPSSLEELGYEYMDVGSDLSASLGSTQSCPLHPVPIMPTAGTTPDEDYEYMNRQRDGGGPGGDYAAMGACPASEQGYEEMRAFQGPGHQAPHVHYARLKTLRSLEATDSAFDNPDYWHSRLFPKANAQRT

- phosphorylation of HER3 (HER3): induced phosphorylation
- phosphorylation of HER2 (HER2 [1]): induced phosphorylation
- phosphorylation of HER2 (HER2 [2]): induced phosphorylation
B1: recombinant human sPLA2-IIA: recombinant human secretory phospholipase A2-IIA (protein, UniProt P14555 21-144, looked up)
Phospholipase A2, membrane …: NLVNFHRMIKLTTGKEAALSYGFYGCHCGVGGRGSPKDATDRCCVTHDCCYKRLEKRGCGTKFLSYKFSNSGSRITCAKQDSCRSQLCECDKAAATCFARNKTTYNKKYQYYSNKHCRGSTPRC
- prostate cancer cell growth (MTT) (LNCaP-AI cells): stimulates prostate cancer cell growth

Reference: patent US20130095503A1, “SERUM SPLA2-IIA AS DIAGNOSIS MARKER FOR PROSTATE AND LUNG CANCER” (UNIVERSITY OF CINCINNATI, priority 2010, published 2013)
